The values that follow come from the supplement of paper PMC10567573.

The chains are these.
B1: CSTF3 (parent)
chain: YVPEKVKKAEKKLEENPYDLDAWS
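Further: lentivirally expressed fusions sorted by FACS into six bins by GFP to DsRed ratio, PSI derived from sequencing read proportions per bin multiplied by bin number.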

Variants of B1 are the subject of the series. The experiment in a line: protein stability index of a GFP-peptide fusion (GPS, HEK-293T) (PSI 1-6); higher = more stable. The note with it: c terminus: a fixed tail appended.
Consider YVPEKVKKAEKKLEENPYDIDAWS [L20I], for which the protein stability index worked out at 1.97.

For the variant YVPEKVKKAEKKLEENPYDWDAWS [L20W], the protein stability index amounted to 1.55.

On to YVPEKVKKAEKKLEENPYDSDAWS [L20S], for which the protein stability index was found to be 2.24.

In the case of YVPEKVKKAEKKLEENPYDHDAWS [L20H], the protein stability index was 2.84.

YVPEKVKKAEKKLEENPYDADAWS [L20A]: the protein stability index was determined as 2.54.

YVPEKVKKAEKKLEENPYDTDAWS [L20T]: the protein stability index was 3.25.

For the variant YVPEKVKKAEKKLEENPYDGDAWS [L20G], the protein stability index was determined as 2.15.

With YVPEKVKKAEKKLEENPYDVDAWS [L20V], the protein stability index stood at 3.2.

For YVPEKVKKAEKKLEENPYDEDAWS [L20E], the protein stability index came out at 1.76.

With YVPEKVKKAEKKLEENPYDPDAWS [L20P], the protein stability index stood at 2.23.

On to YVPEKVKKAEKKLEENPYDRDAWS [L20R], for which the protein stability index is 2.9.

Turning to YVPEKVKKAEKKLEENPYDQDAWS [L20Q], the protein stability index was determined as 2.79.

Regarding YVPEKVKKAEKKLEENPYDFDAWS [L20F], the protein stability index came to 1.44.

Take YVPEKVKKAEKKDEENPYDLDAWS [L13D]: the protein stability index was determined as 2.22.

YVPEKVKKAEKKIEENPYDLDAWS [L13I]: the protein stability index came to 3.1.

In the case of YVPEKVKKAEKKTEENPYDLDAWS [L13T], the protein stability index came to 1.92.

YVPEKVKKAEKKAEENPYDLDAWS [L13A]: the protein stability index was 2.25.

On to YVPEKVKKAEKKREENPYDLDAWS [L13R], for which the protein stability index was determined as 2.67.

Regarding YVPEKVKKAEKKQEENPYDLDAWS [L13Q], the protein stability index came to 2.36.

As for YVPEKVKKAEKKPEENPYDLDAWS [L13P], the protein stability index turned out to be 2.46.

For YVPEKVKKAEKKKEENPYDLDAWS [L13K], the protein stability index came out at 2.5.

With YVPEKVKKAEKKEEENPYDLDAWS [L13E], the protein stability index came to 2.86.

For YVPEKVKKAEKKGEENPYDLDAWS [L13G], the protein stability index is 2.23.

Regarding YVPEKVKKAEKKVEENPYDLDAWS [L13V], the protein stability index was 2.21.

In the case of YVPEKVKKAEKKFEENPYDLDAWS [L13F], the protein stability index was determined as 2.02.

Consider YVPEKVKKAEKKMEENPYDLDAWS [L13M], for which the protein stability index stood at 3.19.

As for YVPEKVKKAEKKSEENPYDLDAWS [L13S], the protein stability index worked out at 3.52.

Consider YVPEKVKKAEKKYEENPYDLDAWS [L13Y], for which the protein stability index was 1.87.

For YVPEKVKKAEKKHEENPYDLDAWS [L13H], the protein stability index was 2.49.

For YVPEKVKKAEKKWEENPYDLDAWS [L13W], the protein stability index was determined as 2.45.

Consider YVPEKVKKAEKKLEENPYNLDAWS [D19N], for which the protein stability index came to 2.54.

In the case of YVPEKVKKAEKKLEENPYHLDAWS [D19H], the protein stability index was found to be 1.58.

As for YVPEKVKKAEKKLEENPYTLDAWS [D19T], the protein stability index came out at 2.34.

As for YVPEKVKKAEKKLEENPYLLDAWS [D19L], the protein stability index was 1.62.

Take YVPEKVKKAEKKLEENPYPLDAWS [D19P]: the protein stability index was determined as 2.59.

Turning to YVPEKVKKAEKKLEENPYGLDAWS [D19G], the protein stability index came out at 3.95.

Regarding YVPEKVKKAEKKLEENPYELDAWS [D19E], the protein stability index was 2.57.

On to YVPEKVKKAEKKLEENPYALDAWS [D19A], for which the protein stability index was determined as 2.2.

Turning to YVPEKVKKAEKKLEENPYYLDAWS [D19Y], the protein stability index worked out at 2.69.

Turning to YVPEKVKKAEKKLEENPYKLDAWS [D19K], the protein stability index was 3.97.

Consider YVPEKVKKAEKKLEENPYILDAWS [D19I], for which the protein stability index stood at 2.28.

Take YVPEKVKKAEKKLEENPYSLDAWS [D19S]: the protein stability index amounted to 2.91.

As for YVPEKVKKAEKKLEENPYQLDAWS [D19Q], the protein stability index was 3.34.

Consider YVPEKVKKAEKKLEENPYRLDAWS [D19R], for which the protein stability index worked out at 2.04.

For the variant YVPEKVKKAEKKLEENPYMLDAWS [D19M], the protein stability index worked out at 2.14.

Consider YVPEKVKKAEKKLEENPYWLDAWS [D19W], for which the protein stability index was determined as 2.98.

For YVPEKVKKAEWKLEENPYDLDAWS [K11W], the protein stability index came out at 2.4.

For YVPEKVKKAEPKLEENPYDLDAWS [K11P], the protein stability index is 2.65.

Take YVPEKVKKAESKLEENPYDLDAWS [K11S]: the protein stability index is 2.66.

For YVPEKVKKAERKLEENPYDLDAWS [K11R], the protein stability index was 2.94.

For the variant YVPEKVKKAEYKLEENPYDLDAWS [K11Y], the protein stability index came to 2.72.

For YVPEKVKKAEQKLEENPYDLDAWS [K11Q], the protein stability index stood at 3.48.

Regarding YVPEKVKKAEVKLEENPYDLDAWS [K11V], the protein stability index is 3.77.

With YVPEKVKKAEKKLEENPYDLDFWS [A22F], the protein stability index amounted to 1.8.

With YVPEKVKKAEKKLEENPYDLDEWS [A22E], the protein stability index amounted to 2.29.

Regarding YVPEKVKKAEKKLEENPYDLDCWS [A22C], the protein stability index came out at 2.59.

With YVPEKVKKAEKKLEENPYDLDGWS [A22G], the protein stability index stood at 2.4.

Regarding YVPEKVKKAEKKLEENPYDLDHWS [A22H], the protein stability index came out at 3.16.

In the case of YVPEKVKKAEKKLEENPYDLDDWS [A22D], the protein stability index worked out at 1.67.

YVPEKVKKAEKNLEENPYDLDAWS [K12N]: the protein stability index was 2.92.

Turning to YVPEKVKKAEKALEENPYDLDAWS [K12A], the protein stability index amounted to 2.82.

As for YVPEKVKKAEKRLEENPYDLDAWS [K12R], the protein stability index was determined as 2.88.

On to YVPEKVKKAEKGLEENPYDLDAWS [K12G], for which the protein stability index stood at 2.68.

In the case of YVPEKVKKAEKQLEENPYDLDAWS [K12Q], the protein stability index turned out to be 3.16.

Consider YVPEKVKKAEKPLEENPYDLDAWS [K12P], for which the protein stability index stood at 3.32.

Consider YVPEKVKKAEKVLEENPYDLDAWS [K12V], for which the protein stability index turned out to be 2.59.

Take YVPEKVKKAEKLLEENPYDLDAWS [K12L]: the protein stability index is 2.95.

For the variant YVPEKVKKAEKWLEENPYDLDAWS [K12W], the protein stability index was 2.9.

Consider YVPEKVKKAEKFLEENPYDLDAWS [K12F], for which the protein stability index stood at 3.31.

In the case of YVPEKVKKAEKYLEENPYDLDAWS [K12Y], the protein stability index was 2.72.

Take YVPEKVKKAEKHLEENPYDLDAWS [K12H]: the protein stability index was 3.19.

Take YVPEKVKKAEKDLEENPYDLDAWS [K12D]: the protein stability index was found to be 2.9.

On to YVPEKVKKAEKTLEENPYDLDAWS [K12T], for which the protein stability index was found to be 3.28.

Consider YVPEKVKKAEKILEENPYDLDAWS [K12I], for which the protein stability index is 2.7.

Take YVPEKVKKAEKCLEENPYDLDAWS [K12C]: the protein stability index was found to be 2.49.

Regarding YVPEKVKKAEKELEENPYDLDAWS [K12E], the protein stability index amounted to 2.41.

For the variant YVPEKVKKAEKMLEENPYDLDAWS [K12M], the protein stability index was determined as 2.6.

In the case of YVPEKVKKAEKSLEENPYDLDAWS [K12S], the protein stability index is 3.79.

For the variant YVPEKVKKAEKKLEENPYDLIAWS [D21I], the protein stability index was found to be 3.3.

Consider YVPEKVKKAEKKLEENPYDLLAWS [D21L], for which the protein stability index amounted to 1.99.

As for YVPEKVKKAEKKLEENPYDLSAWS [D21S], the protein stability index came out at 2.21.

Regarding YVPEKVKKAEKKLEENPYDLHAWS [D21H], the protein stability index was 2.43.

For YVPEKVKKAEKKLEENPYDLNAWS [D21N], the protein stability index turned out to be 4.07.

Regarding YVPEKVKKAEKKLEENPYDLRAWS [D21R], the protein stability index was 2.03.

Take YVPEKVKKAEKKLEENPYDLWAWS [D21W]: the protein stability index was found to be 2.24.

Regarding YVPEKVKKAEKKLEENPYDLMAWS [D21M], the protein stability index worked out at 3.19.

As to YVPEKVKKAEKKLEENPYDLAAWS [D21A], the protein stability index was found to be 2.98.

Consider YVPEKVKKAEKKLEENPYDLEAWS [D21E], for which the protein stability index is 3.37.

For YVPEKVKKAEKKLEENPYDLQAWS [D21Q], the protein stability index worked out at 2.86.

Turning to YVPEKVKKAEKKLEENPYDLGAWS [D21G], the protein stability index is 2.66.

With YVPEKVKKAEKKLEENPYDLPAWS [D21P], the protein stability index was determined as 1.43.

With YVPEKVKKAEKKLEENPYDLVAWS [D21V], the protein stability index was determined as 1.83.

For YVPEKVKKAEKKLEENPYDLFAWS [D21F], the protein stability index worked out at 2.63.

YVPEKVKKAEKKLEENPYDLYAWS [D21Y]: the protein stability index was 2.19.
